Laboratory results from patent US20090117593A1, “T. Cruzi-derived neurotrophic agents and methods of use therefor” (Tufts University, priority 2006, published 2009).
“Also recorded” adds a separate entry of the source.

Legend:
PC12 cells = assay: Protection of PC12 cells from apoptosis induced by trophic factor withdrawal (DAPI, TUNEL); type: cell-based; conditions: serum-free RPMI-1640/0.2% BSA, 17 hours, DAPI or TUNEL
From the text: PC12 cells were obtained from ATCC (Manassas, Va. (Accession No. CRL-1721)) and cultured on collagen-coated dishes in RPMI 1640 supplemented with 10% horse serum and 5% fetal bovine serum (Greene, L., and Tishler, A., Proc. Natl. Acad. Sci. USA, 73:2424-2428 (1976)). For differentiation and survival experiments, cells were washed three times in serum-free RPMI/0.2% BSA, plated in the same medium in collagen-coated plastic dishes at 2×10^5/ml, without and with growth factors, TS, recombinant proteins, synthetic peptides, for the time and concentrations indicated in the Figures.
Cell staining with 4,6-diamino-2-phenylindole (DAPI). Cells were fixed with 4% formaldehyde in PBS for 5 minutes, washed with PBS, stained with 10 μg/ml DAPI (Sigma) for 2 minutes, washed with PBS, and visualized under UV light using a fluorescent microscope. About 300-400 cells were examined under the microscope to determine the percentage of apoptotic cells.
Cell DNA nick end labeling (TUNEL) (Gavrieli, Y. et al., J. Cell. Biol., 119:493-501 (1992)) assay was performed using a kit purchased from Boehringer Mannheim as described by the manufacturer.
Protection against apoptosis of PC12 cells in serum-free medium containing a test agent (agent N) (e.g., protection induced by TS, TS fragments, NGF or other growth factors), was calculated by the formula: 100%−[(apoptosis(%) of cells kept in RPMI containing test agent N÷apoptosis (%) of cells kept in RPMI)×100%]. Testing the effect of Wortmannin (Sigma) and LY294002 (Sigma) in inhibiting the neuroprotection of TS was performed following the protocol described by others (Yao, R., and Cooper, G., Science, 267:2003-2006 (1995); D'Mello, et al., J. Neurosci., 17:1548-1560 (1997)). In brief, PC12 cells were switched from growth medium to RPMI without and with TS or various other growth factors. After 24 hours, Wortmannin and LY294002 were added to the cultures. After another 24 hours, cells were examined for apoptosis by the DAPI assay, as above.

Trans-sialidase assay = type: biochemical
Procedure: The trans-sialidase assay was performed as described (Scudder, P. et al., J. Biol. Chem., 268:9886-9891 (1993)) with slight modifications. Various amounts of intact enzyme or enzyme fragments were added to 50 mM PBS, Ph 7.2, containing 15% fetal calf serum and […] of [^14C]N-acetyllactosamine (4×10^5 dpm), 50 μg BSA and 0.02% NaN3 in a volume of 60 μl. After incubation for a predetermined amount of time at room temperature, the reaction mixture was diluted to 1.0 ml with distilled water and applied to a column containing 1.0 ml Q-Sepharose equilibrated with water. Sialylated product was eluted with 1 M NaCl and quantified by scintillation counting.
TS enzymatic activity was measured by the sialylation of the acceptor ^14C-labeled N-acetyllactosamine on anion exchange resins (Scudder, P. et al., J. Biol. Chem. 268:9886-9891 (1993)). Recombinant TSA-1, was expressed on insect sf9 cells and purified from serum-free medium by ion exchange chromatography (monoQ) and preparative SDS-PAGE (Wrightsman, R. A. et al., J. Immunol., 153:3148-3154 (1994).

Akt kinase [1] = assay: Immunodetection and kinase assay of activated Akt in Schwann cells
Procedure: Schwann cells, grown in 10% FCS to 70% confluency in 6-well plates, were switched to DMEM containing 0.1% FCS for 48 hours to reduce basal Akt phosphorylation. Then the cells were placed in serum-free DMEM medium for 2 hours and challenged with TS, CD or other test factors for predetermined periods of time. When the PI-3 kinase inhibitor LY294002 (Sigma) was used, the inhibitor was added to the serum-starved cells 30 minutes before challenge with TS or CD. Cell samples were lysed with lysis buffer (20 mM Tris, pH 7.5, 150 mM NaCl, 1 mM EDTA, 1% Triton X-100 (t-Octylphenoxypolyethoxyethanol), 2.5 mM sodium pyrophosphate, 1 mM glycerophosphate, 1 mM Na3VO4, 1 μg/ml leupeptin and 1 mM Phenymethylsulfonyl fluoride (PMSF)). Samples (40 μg) were run on 10% SDS-Page, blotted to nitrocellulose paper and analyzed by Western (immuno) blot with monoclonal antibody specific for P-Ser473 of Akt (New England Biolabs). Reaction was visualized by chemiluminescence using the ECL kit (New England Nuclear).
Enzymatic activity of Akt kinase was assessed using the synthetic substrate GSK-3α-fusion protein (Cell Signaling Technology, Beverly, Mass.), according to the protocol provided by Cell Signaling Technology. In short, lysates of Schwann cells subjected to various treatments were immunoprecipitated with Akt antibody coupled to agarose beads, and the immunoprecipitates incubated with GSK-3α-fusion protein as the substrate for Akt phosphorylation, in the presence of 200 μM ATP. Phosphorylation of GSK-3 fusion protein was detected by Western blot using phospho-GSK-3αβ (Ser21/9)-specific antibody (Cell Signaling Technology). The reaction product was identified by chemiluminescence using the ECL kit (New England Nuclear).

human Schwann cells = assay: Serum withdrawal-induced apoptosis of Schwann cells (DAPI); type: cell-based
Akt kinase [2] = assay: Immunodetection of activated Akt in PC12 cells; type: cell-based; conditions: Western blot, phospho-Akt (Ser 473) antibody; 100 ng/ml
Procedure: PC12 cells were deprived of serum for 24-48 hours, stimulated with TS, TS-F or LTR for 2, 5 or 10 minutes and immediately lysed with 2% SDS. In studies using the PI-3 kinase inhibitor, LY294002 (LY), cells were pre-treated with the inhibitor (1 μM) for 30 min prior to the addition of TS-F or TS. The proteins in the cell lysate were separated in SDS-10% polyacrylamide gels, transferred to nitrocellulose membrane (Bio-Rad) and the phosphorylated form of protein kinase Akt was detected with phospho-Akt (Ser 473) antibody (New England BioLabs, Beverly, Mass.), followed by alkaline phosphatase-conjugated secondary antibody (Promega, Madison, Wis.). Bands corresponding to phospho-Akt (60 kDa) were quantified using a scanning densitometer (Bio-Rad).

neuroblastoma N18 cells = assay: Neurite outgrowth assay in N18 cells; type: cell-based; conditions: soluble or immobilized on plastic (500 μg/ml coating), 17 hours
Procedure: 96-well microtiter plates were coated overnight at 4° C. with the TS or peptides or fragments thereof, or with control proteins laminin (Ln) or bovine serum albumin (BSA) at 500 μg/ml. After removing the compounds, the plates were further incubated with 1% BSA for 1 hour at room temperature and immediately used as substratum for PC12 or N18 (Prasad, K., Biol. Rev. Camb. Philos. Soc., 66:431-451 (1991)) cells in serum-free RPMI/0.2% BSA. Neurite outgrowth was measured using a phase-contrast microscope 17 hours later.

IL-6 [3] = assay: IL-6 secretion by T-24 carcinoma cells (ELISA); type: cell-based, human; conditions: 24 hours
Procedure: (§1) Primary cultures of human intestinal microvascular endothelial cells (HIMEC) isolated from normal jejunal mucosa/submucosal tissue were prepared as described (Strong et al., Gastroenterology 114:1244-1256 (1998)). The HIMEC were cultured in fibronectin-coated plasticware in MCDB medium (Sigma) supplemented with 20% FBS, 90 μg/ml heparin and 50 μg/ml endothelial cell growth factor (Sigma). T-24 cells (ATCC Accession No. HTB-4) were cultured in M199 medium supplemented with 10% FBS. PBMC were purified by Ficoll-Paque gradient as described (Current Protocols in Immunology, pp 7.1.1-7.1.2). Vero cells (ATCC Accession No. CCL-81) were grown in RPMI medium with 5% Nu serum and infected with the Silvio X-10/4 of T. cruzi as described previously (Chuenkova et al., J. Exp. Med. 181:1693-1703 (1995)).
(§2) Endothelial cells and T-24 cells were plated on 24-well plates at a density of 1×10^3 cells/well, while peripheral blood mononuclear cells (PBMC) were plated in the similar wells at 1×10^6/well. Triplicat cultures of cells were incubated test agents for a predetermined amount of time. […] Cytokines and chemokines released in the culture supernatants were measured by ELISA assay following the instructions of the manufacturer (Endogen). The cytokines tested were IL-1β, IL-4, IL-8, […], IL-12, IFN-γ, TNF-α, and the chemokines RANTES and MCP-1. Negative controls were cells incubated in medium containing polymixin B at 10 μg/ml, and positive controls were cells incubated with bacterial LPS at the low ng/ml range (for PBMC or HIMEC) or in the μg/ml range for carcinoma T-24 cells. In some experiments, IL-1β or TNFα were used as positive control for cytokine release.

IL-6 [4] = assay: IL-6 secretion by PBMC (ELISA); type: cell-based, human; conditions: 24 hours
Procedure: as §1, §2
TR peptides (Table 2) were synthesized at the Tufts Synthesis Facility (Boston, Mass.). Each peptide was purified by HPLC, and the number of amino acids and molecular weight of each peptide verified by mass spectrometry. Peptides were dissolved in growth medium (10% FCS in RPMI) and added at various concentrations to 1×10^6 PBMC/well in 24-well plates. After 24 hours, IL-6 was assayed by ELISA in the conditioned supernatants.

Row | Molecule | protection of PC12 cells from apoptosis induced by trophic factor withdrawal (PC12 cells) | trans-sialidase (enzymatic) activity (Trans-sialidase assay) | Akt phosphorylation in Schwann cells transfected with dominant negative PTEN mutant (Akt kinase [1]; CD 500 ng/ml) | Akt phosphorylation in Schwann cells transfected with empty vector (neo) (Akt kinase [1]; CD 500 ng/ml) | time within which CD activated Schwann cell Akt kinase (Akt kinase [1]; CD 500 ng/ml) | transience of Akt activation in Schwann cells (Akt kinase [1]; CD 500 ng/ml) | Akt kinase activity in control GFP-transfected Schwann cells (Akt kinase [1]; CD 500 ng/ml, 2 minutes, GSK-3α substrate) | Akt kinase activity in Schwann cells over expressing AktKI (Akt kinase [1]; CD 500 ng/ml, 2 minutes, GSK-3α substrate, listed as CD) | Akt phosphorylation in Schwann cells over expressing PTEN (Akt kinase [1]; CD 500 ng/ml, listed as CD) | phosphorylation (activation) of Akt kinase in Schwann cells (Akt kinase [1]; Western blot P-Akt (Ser473), listed as CD) | survival of Schwann cells transfected with dominant negative PTEN mutant (pG129R) (human Schwann cells; CD 500 ng/ml) | survival of control Schwann cells transfected with GFP vector (human Schwann cells; CD 500 ng/ml, serum-free, 48 hours) | survival of Schwann cells over expressing kinase-inactive Akt (AktKI) (human Schwann cells; CD 500 ng/ml, serum-free, 48 hours, listed as CD) | fragmented nuclei in Schwann cells transfected with empty vector (neo) (human Schwann cells; CD 500 ng/ml, serum-starved) | rescue from apoptosis of Schwann cells over expressing PTEN (human Schwann cells; CD 500 ng/ml, listed as CD) | inhibition of serum withdrawal-induced apoptosis of Schwann cells (human Schwann cells; serum-free DMEM, 24-72 hours, listed as CD) | phosphorylation (activation) of Akt kinase in PC12 cells (Akt kinase [2]) | neurite outgrowth in N18 cells (neuroblastoma N18 cells) | IL-6 secretion by T-24 cells (IL-6 [3]) | IL-6 secretion by PBMC (IL-6 [4])
1 | TS-F: recombinant full catalytic domain of TS, amino acid residues 33-666 (protein, listed as Trypanosoma cruzi) ETQIAIKNSRVSSVSRVVDPTVIVKGNKLYVLVGSYYSSRSYWSSHGDARDWDILLAVGEVTKSTAGGKITASIKWGSPVSLKKFFPAEMEGMHTNQFLGGAGVAIVASNGNLVYPVQVTNKRKQVFSKIFYSEDDGKTWKFGKGRSDFGCSEPVALEWEGKLIINTRVDWKRRLVYESSDMEKPWVEAVGTVSRVWGPSPKSNQPGSQTSFTAVTIEGMRVMLFTHPLNFKGRCVRDRLNLWLTDNQRIYNVGQVSIGDENSAYSSVLYKDDKLYCLHEINTDEVYSLVFARLVGELRIIKSVLRSWKNWTATCPAFAPLLIQPLRRQRVVVVPLSPRLVLLAFCRQRLPKRMGGSYRCVNASTANAERVRNGLKFAGVGGGALWPVSQQGQNQRYRFANHAFTLVASVTIHEAPRAASPLLGASLDSSGGKKLLGLSYDEKHQWQPIYGSTPVTPTGSWETGKRYHLVLTMANKIGSVYIDGELLEGSGQTVVPDGRTPDISHFYVGGYKRSDMPTISHVTVNNVLLYNRRQLNTEEIRTLFLSQDLIGTEAHMDSSSDSSAHSTPSTPADSSAHSTPSTPVDSSAHSTPSTPADSSAHGTPSTPVDSSAHGTPSTPADSSAHGTPSTPVDS | PC12 cell survival being induced by TS-F | enzymatically active | did not detectably enhance Akt phosphorylation | boosted levels of phospho-Akt | 1 to 5 min | phospho-Akt not detected after 15 min | stimulation of Akt activity | inability of CD to enhance endogenous Akt enzymatic activity; also recorded: did not activate Akt kinase | did not result in the generation of phospho-Akt; also recorded: did not induce phosphorylation of Akt kinase | induced transient phosphorylation of Akt kinase | did not detectably enhance Akt phosphorylation and survival | did increase survival of the cells | did not increase survival of the cells; also recorded: did not promote survival | decreased the number of fragmented nuclei by about ten-fold | did not rescue cells from apoptotic death; also recorded: did not rescue Schwann cells that over expressed PTEN from apoptosis | protected Schwann cells against apoptosis; also recorded: nearly as effective in protecting Schwann cells from apoptosis as 2% serum; also recorded: protected human Schwann cells from apoptosis; also recorded: nearly as effective as 2% serum at inhibiting apoptosis; also recorded: dose-dependent inhibition of serum withdrawal-induced apoptosis | effective in activating Akt | induced neurite outgrowth to about the same extent as the intact enzyme | did not promote IL-6 release from T-24 cells | 
2 | TS-154: recombinant catalytically active trans-sialidase construct with 5 tandem repeat units (protein, listed as Trypanosoma cruzi) KKKQVFSKIFYSEDEGKTWKFGEGRSDFGCSEPVALEWEGKLIINTRVDYRRRLVYESSDMGNSWVEAVGTLSRVWGPSPKSNQPGSQSSFTAVTIEGMRVMLFTHPLNFKGRWLRDRLNLWLTDNQRIYNVGQVSIGDENSAYSSVLYKDDKLYCLHEINSNEVYSLVFARLVGELRIIKSVLQSWKNWDSHLSSICTP |  | enzymatically-active |  |  |  |  |  |  |  |  |  |  |  |  |  |  |  |  | as powerful as enzymatically-inactive TS-H32 in stimulating IL-6 secretion | as powerful as enzymatically-inactive TS-H32 in stimulating IL-6 secretion
